Results reported in the RNAGym collection of RNA variant scans (doi:10.1021/acssynbio.7b00057).

B1: Pistol ribozyme (parent)
chain: GGGUCGUUGUUCCAUAAUCGCGUGGAUAUGGCACGCAAGUUUCUACCGGGCACCGUAAAUGUCCGACUGGAGCCGUUCGGGCGGCUAUAAACAGACCUCAGGCCCGAAGCGUGGCGGCACCUGCCGCCGGUGGUAAAAAAGAUCGGAAGAGCACACGUCU

Variants of: B1
Assay: aptazyme ON/OFF ratio, guanine; higher = stronger switching; co-transcriptional cleavage with and without guanine

Variant | aptazyme ON/OFF ratio
U7G G9C U10C C13U | 1.47
U7G G9C U11G C12U C13U | 1.2
U7G G9C U11G C12U C13A | 1.43
U7G G9C U11G C12U C13G | 1.27
U7G G9C U10A U11G C12A C13A | 1.07
U7G G9C U10A U11G C12A C13G | 1.11
U7G G9C U10A U11G C12A C13U | 1.14
U7G G9C U11A C12A | 1.94
U7G G9C U11A C12G | 1.65
U7G G9C U11A C12U | 1.65
U7G G9U U10A U11C C12U | 1.32
U7G G9U U10A U11C C12G | 1.5
U7G G9U U10A U11C C12A | 1.56
U7G G9C U10G U11C C13G | 1.16
U7G G9C U10G U11C C13A | 1.24
U7G G9C U10G U11C C13U | 1.15
U7G G9C U10G U11C | 1.17
U7G G9C U10G U11A | 1.37
U7G G9C U10G U11G | 2.48
U7G G9U C12A C13A | 1.46
U7G G9U C12A C13U | 1.14

Variant | aptazyme ON/OFF ratio
U7G G9U C12A C13G | 1.33
U7G G9U U10C C13G | 1.1
U7G G9U U10C C13A | 1.37
U7G G9U U10C C13U | 1.66
U7G G9C U10C U11G C12A C13A | 1.09
U7G G9C U10C U11G C12A C13G | 1.13
U7G G9C U10C U11G C12A C13U | 1.08
U7G G9U U10A C13A | 1.44
U7G G9U U10A C13U | 1.35
U7G G9U U10A C13G | 1.18
U7G G9C U11G C12U | 1.43
U7G G9C U11G C12G | 1.31
U7G G9C U11G C12A | 1.41
U7G G9U U10A U11A C12G C13G | 1.11
U7G G9U U10A U11A C12G C13A | 1.13
U7G G9U U10A U11A C12G C13U | 1.42
U7G G9U U10A U11A C12U C13U | 1.28
U7G G9U U10A U11A C12U C13G | 1.29
U7G G9U U10A U11A C12U C13A | 0.962
U7G G9U U10C C12G C13G | 1.22
U7G G9U U10C C12G C13A | 1.27

Variant | aptazyme ON/OFF ratio
U7G G9U U10C C12G C13U | 1.29
U7G G9U C12U C13G | 1.31
U7G G9U C12U C13A | 1.28
U7G G9U C12U C13U | 1.18
U7G G9C U10A U11C C13G | 1.09
U7G G9C U10A U11C C13U | 1.14
U7G G9C U10A U11C C13A | 1.21
U7G G9C U11C C12G | 1.65
U7G G9C U11C C12U | 2.15
U7G G9C U11C C12A | 2.21
U7G G9U C12G C13G | 1.22
U7G G9U C12G C13A | 1.16
U7G G9U C12G C13U | 1.36
U7G G9C U11A C12U C13G | 1.33
U7G G9C U11A C12U C13U | 1.32
U7G G9C U11A C12U C13A | 1.42
U7G G9U U10C U11G C12A C13G | 1.13
U7G G9U U10C U11G C12A C13U | 1.16
U7G G9U U10C U11G C12A C13A | 1.1
U7G G9C U10A U11C C12U C13G | 1.19
U7G G9C U10A U11C C12U C13U | 1.18

Variant | aptazyme ON/OFF ratio
U7G G9C U10G U11C C12G C13A | 1.27
U7G G9C U10G U11C C12G C13G | 1.07
U7G G9C U10G U11C C12G C13U | 1.21
U7G G9C U10C U11G C13U | 1.27
U7G G9C U10C U11G C13G | 1.17
U7G G9C U10C U11G C13A | 1.19
U7G G9U U10C U11A C12A C13A | 1.22
U7G G9U U10C U11A C12A C13U | 1.36
U7G G9U U10C U11A C12A C13G | 1.16
U7G G9C U11C | 2.53
U7G G9C U11A | 2.57
U7G G9C U11G | 1.48
U7G G9U U10A C12U C13A | 1.06
U7G G9U U10A C12U C13G | 1.14
U7G G9U U10A C12U C13U | 1.15
U7G G9U U10C U11A | 3.43
U7G G9U U10C U11C | 1.42
U7G G9U U10C U11G | 2.9
U7G G9U U10A U11G C12A C13G | 1.11
U7G G9U U10A U11G C12A C13U | 1.12
U7G G9U U10A U11G C12A C13A | 1.11
